Reference: paper PMC5870055, “Structural and Mechanistic Analysis of the Choline Sulfatase from Sinorhizobium melliloti: A Class I Sulfatase Specific for an Alkyl Sulfate Ester” (Journal of Molecular Biology, 2018)

Legend:
[1] = target: T1, SmCS (Sinorhizobium meliloti choline sulfatase, BetC) (Sinorhizobium meliloti, UniProt O69787); assay: product inhibition kinetics; type: biochemical; conditions: competitive; range over the pH values tested, single values in Fig. S11; 25 °C
T1 sequence (O69787 1-512): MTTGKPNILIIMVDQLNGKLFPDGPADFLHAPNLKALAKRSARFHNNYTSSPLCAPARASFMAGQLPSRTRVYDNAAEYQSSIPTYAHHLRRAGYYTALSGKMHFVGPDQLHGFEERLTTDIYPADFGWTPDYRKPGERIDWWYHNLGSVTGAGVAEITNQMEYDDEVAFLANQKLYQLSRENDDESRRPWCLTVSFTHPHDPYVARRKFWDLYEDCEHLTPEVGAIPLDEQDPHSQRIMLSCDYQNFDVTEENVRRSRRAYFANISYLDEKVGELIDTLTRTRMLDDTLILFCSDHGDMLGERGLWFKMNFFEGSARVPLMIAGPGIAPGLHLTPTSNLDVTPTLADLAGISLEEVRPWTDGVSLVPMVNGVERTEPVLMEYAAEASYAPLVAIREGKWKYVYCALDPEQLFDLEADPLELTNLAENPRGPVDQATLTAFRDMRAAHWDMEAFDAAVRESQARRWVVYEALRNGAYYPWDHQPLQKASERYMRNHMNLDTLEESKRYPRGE
Text: product inhibition kinetics on SmCS (Sinorhizobium meliloti choline sulfatase, BetC) | The reaction product choline can act as a competitive inhibitor, albeit a relatively weak one

[2] = test system: O=[N+]([O-])c1ccc(OS(=O)(=O)O)cc1; assay: purified protein; conditions: 100 mM Tris-HCl pH 7.6, 25 °C
[3] = test system: C[N+](C)(C)CCOS(=O)(=O)[O-]; assay: purified protein; conditions: pH 7.6; 25.0 °C
purified protein [4] = substrate: O=[N+]([O-])c1ccc(OS(=O)(=O)O)cc1; assay: purified protein
purified protein [5] = substrate: C[N+](C)(C)CCOP(=O)([O-])O; assay: purified protein; conditions: 100 mM Tris-HCl pH 7.6, 25 °C, no metal added
purified protein [6] = substrate: C[N+](C)(C)CCOS(=O)(=O)[O-]; assay: purified protein; conditions: 100 mM Tris-HCl pH 7.6, 25 °C
purified protein [7] = substrate: COP(=O)(O)Oc1ccc([N+](=O)[O-])cc1; assay: purified protein; conditions: 100 mM imidazole-HCl pH 6.0, 25 °C
[8] = 100 mM imidazole-HCl pH 6.0, 25 °C
[9] = 100 mM Tris-HCl pH 7.6, 25 °C, made without FGE

In the case of `C[N+](C)(C)CCO` [choline], the KIC [1] is reported as ~ 52–6.3 mM.

In the case of “SmCS (Sinorhizobium meliloti choline sulfatase, BetC) (Sinorhizobium meliloti 1021; DEL501-512)”, the Km [2] is reported as “(9.0 ± 0.1) × 10^-2 M”, the kcat [2] is reported as 0.0159 ± 0.0001 s⁻¹ and the kcat/Km [2] is reported as 0.178 ± 0.004 M⁻¹ s⁻¹. For the same molecule, the Km [3] was “(1.09 ± 0.01) × 10^-2 M”, the kcat [3] was 0.021 ± 0.002 s⁻¹ and the kcat/Km [3] was 1.93 ± 0.01 M⁻¹ s⁻¹.

B1: SmCS (Sinorhizobium meliloti choline sulfatase, BetC) (Sinorhizobium meliloti 1021) (protein)
chain: MTTGKPNILIIMVDQLNGKLFPDGPADFLHAPNLKALAKRSARFHNNYTSSPLCAPARASFMAGQLPSRTRVYDNAAEYQSSIPTYAHHLRRAGYYTALSGKMHFVGPDQLHGFEERLTTDIYPADFGWTPDYRKPGERIDWWYHNLGSVTGAGVAEITNQMEYDDEVAFLANQKLYQLSRENDDESRRPWCLTVSFTHPHDPYVARRKFWDLYEDCEHLTPEVGAIPLDEQDPHSQRIMLSCDYQNFDVTEENVRRSRRAYFANISYLDEKVGELIDTLTRTRMLDDTLILFCSDHGDMLGERGLWFKMNFFEGSARVPLMIAGPGIAPGLHLTPTSNLDVTPTLADLAGISLEEVRPWTDGVSLVPMVNGVERTEPVLMEYAAEASYAPLVAIREGKWKYVYCALDPEQLFDLEADPLELTNLAENPRGPVDQATLTAFRDMRAAHWDMEAFDAAVRESQARRWVVYEALRNGAYYPWDHQPLQKASERYMRNHMNLDTLEESKRYPRGE
B1 was tested, and the Km (purified protein [4]; [8]) was “(1.9 ± 0.2) × 10^-2 M”, the kcat (purified protein [4]; [8]) was 0.22 ± 0.01 s⁻¹ and the kcat/Km (purified protein [4]; [8]) was 12 ± 2 M⁻¹ s⁻¹. The Km (purified protein [5]) was “(2.1 ± 0.2) × 10^-3 M”, the kcat (purified protein [5]) was 0.0267 ± 0.0001 s⁻¹ and the kcat/Km (purified protein [5]) was 13 ± 1 M⁻¹ s⁻¹. For the same molecule, the Km (purified protein [6]; no metal added) was “(5.0 ± 0.6) × 10^-4 M”, the kcat (purified protein [6]; no metal added) was 2.4 ± 0.2 s⁻¹ and the kcat/Km (purified protein [6]; no metal added) was 4800 ± 500 M⁻¹ s⁻¹. It also gave a kcat (purified protein [7]) greater than 0.004 s⁻¹.

B2: SmCS (Sinorhizobium meliloti choline sulfatase, BetC) (Sinorhizobium meliloti 1021; K309L) (protein)
chain: MTTGKPNILIIMVDQLNGKLFPDGPADFLHAPNLKALAKRSARFHNNYTSSPLCAPARASFMAGQLPSRTRVYDNAAEYQSSIPTYAHHLRRAGYYTALSGKMHFVGPDQLHGFEERLTTDIYPADFGWTPDYRKPGERIDWWYHNLGSVTGAGVAEITNQMEYDDEVAFLANQKLYQLSRENDDESRRPWCLTVSFTHPHDPYVARRKFWDLYEDCEHLTPEVGAIPLDEQDPHSQRIMLSCDYQNFDVTEENVRRSRRAYFANISYLDEKVGELIDTLTRTRMLDDTLILFCSDHGDMLGERGLWFLMNFFEGSARVPLMIAGPGIAPGLHLTPTSNLDVTPTLADLAGISLEEVRPWTDGVSLVPMVNGVERTEPVLMEYAAEASYAPLVAIREGKWKYVYCALDPEQLFDLEADPLELTNLAENPRGPVDQATLTAFRDMRAAHWDMEAFDAAVRESQARRWVVYEALRNGAYYPWDHQPLQKASERYMRNHMNLDTLEESKRYPRGE
B2 was tested, and the Km (purified protein [4]; 100 mM Tris-HCl pH 7.6, 25 °C) was “(8.9 ± 2.7) × 10^-2 M”, the kcat (purified protein [4]; 100 mM Tris-HCl pH 7.6, 25 °C) was 1.6e-05 ± 5e-06 s⁻¹ and the kcat/Km (purified protein [4]; 100 mM Tris-HCl pH 7.6, 25 °C) was 0.000176 ± 1e-06 M⁻¹ s⁻¹.

B3: SmCS (Sinorhizobium meliloti choline sulfatase, BetC) (Sinorhizobium meliloti 1021; E386L) (protein)
chain: MTTGKPNILIIMVDQLNGKLFPDGPADFLHAPNLKALAKRSARFHNNYTSSPLCAPARASFMAGQLPSRTRVYDNAAEYQSSIPTYAHHLRRAGYYTALSGKMHFVGPDQLHGFEERLTTDIYPADFGWTPDYRKPGERIDWWYHNLGSVTGAGVAEITNQMEYDDEVAFLANQKLYQLSRENDDESRRPWCLTVSFTHPHDPYVARRKFWDLYEDCEHLTPEVGAIPLDEQDPHSQRIMLSCDYQNFDVTEENVRRSRRAYFANISYLDEKVGELIDTLTRTRMLDDTLILFCSDHGDMLGERGLWFKMNFFEGSARVPLMIAGPGIAPGLHLTPTSNLDVTPTLADLAGISLEEVRPWTDGVSLVPMVNGVERTEPVLMEYAALASYAPLVAIREGKWKYVYCALDPEQLFDLEADPLELTNLAENPRGPVDQATLTAFRDMRAAHWDMEAFDAAVRESQARRWVVYEALRNGAYYPWDHQPLQKASERYMRNHMNLDTLEESKRYPRGE
With B3 the Km (purified protein [4]; 100 mM Tris-HCl pH 7.6, 25 °C) was “(5.7 ± 0.4) × 10^-2 M”, the kcat (purified protein [4]; 100 mM Tris-HCl pH 7.6, 25 °C) was 0.76 ± 0.03 s⁻¹ and the kcat/Km (purified protein [4]; 100 mM Tris-HCl pH 7.6, 25 °C) was 13 ± 1 M⁻¹ s⁻¹. For the same molecule, the kcat (purified protein [6]) was greater than 0.012 s⁻¹ and the kcat/Km (purified protein [6]) was 0.81 ± 0.01 M⁻¹ s⁻¹.

B4: SmCS (Sinorhizobium meliloti choline sulfatase, BetC) (Sinorhizobium meliloti 1021; C54S) (protein)
chain: MTTGKPNILIIMVDQLNGKLFPDGPADFLHAPNLKALAKRSARFHNNYTSSPLSAPARASFMAGQLPSRTRVYDNAAEYQSSIPTYAHHLRRAGYYTALSGKMHFVGPDQLHGFEERLTTDIYPADFGWTPDYRKPGERIDWWYHNLGSVTGAGVAEITNQMEYDDEVAFLANQKLYQLSRENDDESRRPWCLTVSFTHPHDPYVARRKFWDLYEDCEHLTPEVGAIPLDEQDPHSQRIMLSCDYQNFDVTEENVRRSRRAYFANISYLDEKVGELIDTLTRTRMLDDTLILFCSDHGDMLGERGLWFKMNFFEGSARVPLMIAGPGIAPGLHLTPTSNLDVTPTLADLAGISLEEVRPWTDGVSLVPMVNGVERTEPVLMEYAAEASYAPLVAIREGKWKYVYCALDPEQLFDLEADPLELTNLAENPRGPVDQATLTAFRDMRAAHWDMEAFDAAVRESQARRWVVYEALRNGAYYPWDHQPLQKASERYMRNHMNLDTLEESKRYPRGE
With B4 the Km (purified protein [4]; [9]) was “(3.9 ± 0.2) × 10^-2 M”, the kcat (purified protein [4]; [9]) was 7.3e-05 ± 1e-06 s⁻¹ and the kcat/Km (purified protein [4]; [9]) was 0.00189 ± 6e-05 M⁻¹ s⁻¹. The Km (purified protein [6]; made without FGE) was “(9.4 ± 0.1) × 10^-3 M”, the kcat (purified protein [6]; made without FGE) was 0.0112 ± 0.0002 s⁻¹ and the kcat/Km (purified protein [6]; made without FGE) was 1.19 ± 0.02 M⁻¹ s⁻¹.

B5: SmCS (Sinorhizobium meliloti choline sulfatase, BetC) (Sinorhizobium meliloti 1021; H104A) (protein)
chain: MTTGKPNILIIMVDQLNGKLFPDGPADFLHAPNLKALAKRSARFHNNYTSSPLCAPARASFMAGQLPSRTRVYDNAAEYQSSIPTYAHHLRRAGYYTALSGKMAFVGPDQLHGFEERLTTDIYPADFGWTPDYRKPGERIDWWYHNLGSVTGAGVAEITNQMEYDDEVAFLANQKLYQLSRENDDESRRPWCLTVSFTHPHDPYVARRKFWDLYEDCEHLTPEVGAIPLDEQDPHSQRIMLSCDYQNFDVTEENVRRSRRAYFANISYLDEKVGELIDTLTRTRMLDDTLILFCSDHGDMLGERGLWFKMNFFEGSARVPLMIAGPGIAPGLHLTPTSNLDVTPTLADLAGISLEEVRPWTDGVSLVPMVNGVERTEPVLMEYAAEASYAPLVAIREGKWKYVYCALDPEQLFDLEADPLELTNLAENPRGPVDQATLTAFRDMRAAHWDMEAFDAAVRESQARRWVVYEALRNGAYYPWDHQPLQKASERYMRNHMNLDTLEESKRYPRGE
With B5 the Km (purified protein [6]) was “(1.33 ± 0.01) × 10^-2 M”, the kcat (purified protein [6]) was 0.0347 ± 0.0001 s⁻¹ and the kcat/Km (purified protein [6]) was 2.6 ± 0.02 M⁻¹ s⁻¹.
